# Where a chain is given by its changes, count along the chain named.
# T1: FZD3 cysteine-rich domain (CRD), MYC-tagged and GPI-anchored on CHO cells (human, UniProt Q9NPG1 24-150, GPI anchor)
# T1 construct: domain: cysteine-rich domain (CRD); also called FZD3 CRD; CHO-myc-FZDGPI; not shown: MYC tag and GPI anchor signal
# T1 sequence (looked up): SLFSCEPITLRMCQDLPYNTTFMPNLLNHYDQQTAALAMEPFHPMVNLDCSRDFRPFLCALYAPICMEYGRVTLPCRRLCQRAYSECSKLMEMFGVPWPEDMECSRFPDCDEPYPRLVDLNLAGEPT
# T2: FZD4 cysteine-rich domain (CRD), MYC-tagged and GPI-anchored on CHO cells (human, UniProt Q9ULV1 42-167, GPI anchor)
# T2 construct: also called FZD4 CRD; CHO-myc-FZDGPI; not shown: MYC tag and GPI anchor signal
# T2 sequence: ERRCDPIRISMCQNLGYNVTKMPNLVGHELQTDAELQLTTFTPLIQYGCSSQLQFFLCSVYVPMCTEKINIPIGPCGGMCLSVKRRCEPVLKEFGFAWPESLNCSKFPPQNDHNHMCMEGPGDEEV
# T3: FZD10 cysteine-rich domain (CRD), MYC-tagged and GPI-anchored on CHO cells (human, UniProt Q9ULW2 30-156, GPI anchor)
# T3 construct: also called FZD10 CRD; CHO-myc-FZDGPI; not shown: MYC tag and GPI anchor signal
# T3 sequence: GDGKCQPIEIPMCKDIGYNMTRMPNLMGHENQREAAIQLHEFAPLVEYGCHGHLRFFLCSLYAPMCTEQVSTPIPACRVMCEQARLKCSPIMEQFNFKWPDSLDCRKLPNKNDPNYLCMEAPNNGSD
# T4: FZD6 cysteine-rich domain (CRD), MYC-tagged and GPI-anchored on CHO cells (human, UniProt O60353 20-146, GPI anchor)
# T4 construct: also called FZD6 CRD; CHO-myc-FZDGPI; not shown: MYC tag and GPI anchor signal
# T4 sequence: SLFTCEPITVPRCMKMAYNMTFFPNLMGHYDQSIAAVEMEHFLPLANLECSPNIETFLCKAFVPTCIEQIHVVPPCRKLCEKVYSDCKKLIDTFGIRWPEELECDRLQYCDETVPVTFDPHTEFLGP
# T5: FZD9 cysteine-rich domain (CRD), MYC-tagged and GPI-anchored on CHO cells (human, UniProt O00144 35-161, GPI anchor)
# T5 construct: also called FZD9 CRD; CHO-myc-FZDGPI; not shown: MYC tag and GPI anchor signal
# T5 sequence: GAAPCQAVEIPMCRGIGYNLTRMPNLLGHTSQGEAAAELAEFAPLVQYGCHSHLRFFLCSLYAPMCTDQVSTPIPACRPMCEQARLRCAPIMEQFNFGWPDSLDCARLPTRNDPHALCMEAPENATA
# T6: FZD5 cysteine-rich domain (CRD), MYC-tagged and GPI-anchored on CHO cells (human, UniProt Q13467 29-156, GPI anchor)
# T6 construct: also called FZD5 CRD; CHO-myc-FZDGPI; not shown: MYC tag and GPI anchor signal
# T6 sequence: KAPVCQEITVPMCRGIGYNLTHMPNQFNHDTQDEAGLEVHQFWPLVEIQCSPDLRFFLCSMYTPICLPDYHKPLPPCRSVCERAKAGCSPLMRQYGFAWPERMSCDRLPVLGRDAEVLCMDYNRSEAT
# T7: FZD8 cysteine-rich domain (CRD), MYC-tagged and GPI-anchored on CHO cells (human, UniProt Q498S8 31-155 (rat entry), GPI anchor)
# T7 construct: also called FZD8 CRD; CHO-myc-FZDGPI; not shown: MYC tag and GPI anchor signal
# T7 sequence: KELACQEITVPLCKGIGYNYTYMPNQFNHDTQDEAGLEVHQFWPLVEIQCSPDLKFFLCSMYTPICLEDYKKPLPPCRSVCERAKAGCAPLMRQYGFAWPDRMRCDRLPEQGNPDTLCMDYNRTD
# B1: Fab-2934 (Fab, V domains shown)
# VH: EVQLVESGGGLVQPGGSLRLSCAASGFNISYSYMHWVRQAPGKGLEWVASIYSSSGSTSYADSVKGRFTISADTSKNTAYLQMNSLRAEDTAVYYCARGAIDYWGQGTLVTVSS
# VL: DIQMTQSPSSLSASVGDRVTITCRASQSVSSAVAWYQQKPGKAPKLLIYSASSLYSGVPSRFSGSRSGTDFTLTISSLQPEDFATYYCQQWYHYGLITFGQGTKVEIK
# notes: Fab; also called Fv-2934
# B2: Fab-2935 (Fab, V domains shown)
# VH: B1 VH with S30Y, S32Y, M34I, S53P, G99A, I101F
# VL: DIQMTQSPSSLSASVGDRVTITCRASQSVSSAVAWYQQKPGKAPKLLIYSASSLYSGVPSRFSGSRSGTDFTLTISSLQPEDFATYYCQQWYGGYALITFGQGTKVEIK
# notes: Fab; also called Fv-2935
# B3: Fab-2923 (Fab, V domains shown)
# VH: B1 VH with I29L, S30Y, S32Y, I101M
# VL: B2 VL with G94Y, Y95S
# notes: Fab; also called Fv-2923
# B4: Fab-2909 (Fab, V domains shown)
# VH: EVQLVESGGGLVQPGGSLRLSCAASGFNISSSYMHWVRQAPGKGLEWVASISSSSGYTSYADSVKGRFTISADTSKNTAYLQMNSLRAEDTAVYYCARTVRGSKKPYFSGWAMDYWGQGTLVTVSS
# VL: B2 VL with W91S, Y92W, G93S, G94Y, Y95H, A96Y
# notes: Fab; also called Fv-2909
# Target: T1, FZD3 cysteine-rich domain (CRD), …
# Experiment: immunofluorescence, CHO-CRD cells
row,binding result,Binder
1,no binding,B1
2,no binding,B2
3,no binding,B3
4,no binding,B4

# Target: T8, FZD7 cysteine-rich domain (CRD), MYC-tagged and GPI-anchored on CHO cells (human, UniProt O75084 45-169)
# Experiment: immunofluorescence, CHO-CRD cells
row,binding result,Binder
1,no binding,B1
2,no binding,B2
3,no binding,B3

# Target: T9, FZD2 cysteine-rich domain (CRD), MYC-tagged and GPI-anchored on CHO cells (human, UniProt Q14332 35-161)
# Experiment: immunofluorescence, CHO-CRD cells
row,binding result,Binder
1,no binding,B2
2,no binding,B3
3,no binding,B4

# Target: T2, FZD4 cysteine-rich domain (CRD), …
# Experiment: immunofluorescence, CHO-CRD cells
row,binding result,Binder
1,no binding,B1
2,no binding,B4

# Target: T3, FZD10 cysteine-rich domain (CRD), …
# Experiment: immunofluorescence, CHO-CRD cells
row,binding result,Binder
1,no binding,B1
2,no binding,B2
3,no binding,B3
4,no binding,B4

# Target: T4, FZD6 cysteine-rich domain (CRD), …
# Experiment: immunofluorescence, CHO-CRD cells
row,binding result,Binder
1,no binding,B1
2,no binding,B2
3,no binding,B3
4,no binding,B4

# Target: T10, FZD1 cysteine-rich domain (CRD), MYC-tagged and GPI-anchored on CHO cells (human)
# Experiment: immunofluorescence, CHO-CRD cells
row,binding result,Binder
1,no binding,B2
2,no binding,B3
3,no binding,B4

# Target: T5, FZD9 cysteine-rich domain (CRD), …
# Experiment: immunofluorescence, CHO-CRD cells
row,binding result,Binder
1,no binding,B1
2,no binding,B2
3,no binding,B3
4,no binding,B4

# Target: T6, FZD5 cysteine-rich domain (CRD), …
# Experiment: flow cytometry, CHO-CRD cells;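 note: flow cytometry of Fab binding to CHO cells overexpressing a Frizzled CRD, with binding defined as median fluorescence over twice that of CHO cells lacking any Frizzled CRD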
# Procedure: (§1) Binding was measured via flow cytometry analysis of CHO cells overexpressing CRD of FZD1, FZD2, FZD3, FZD4, FZD5, FZD6, FZD7, FZD8, FZD9 or FZD10. Median fluorescence values are shown.
row,median fluorescence,Binder
1,34.3,B1
2,29.2,B2
3,36.9,B3
4,31.3,B4

# Target: T1, FZD3 cysteine-rich domain (CRD), …
# Experiment: flow cytometry, CHO-CRD cells;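 note: flow cytometry of Fab binding to CHO cells overexpressing a Frizzled CRD, with binding defined as median fluorescence over twice that of CHO cells lacking any Frizzled CRD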
# Procedure: as §1
row,median fluorescence,Binder
1,3.28,B1
2,4.49,B2
3,6.67,B3
4,3.43,B4

# Target: T8, FZD7 cysteine-rich domain (CRD), …
# Experiment: flow cytometry, CHO-CRD cells;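 note: flow cytometry of Fab binding to CHO cells overexpressing a Frizzled CRD, with binding defined as median fluorescence over twice that of CHO cells lacking any Frizzled CRD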
# Procedure: as §1
row,median fluorescence,Binder
1,3.52,B1
2,3,B2
3,6.04,B3
4,4.57,B4

# Target: T9, FZD2 cysteine-rich domain (CRD), …
# Experiment: flow cytometry, CHO-CRD cells;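 note: flow cytometry of Fab binding to CHO cells overexpressing a Frizzled CRD, with binding defined as median fluorescence over twice that of CHO cells lacking any Frizzled CRD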
# Procedure: as §1
row,median fluorescence,Binder
1,6.79,B2
2,7.91,B3
3,5.38,B4

# Target: T2, FZD4 cysteine-rich domain (CRD), …
# Experiment: flow cytometry, CHO-CRD cells
# Procedure: as §1
row,median fluorescence,Binder
1,4.78,B1
2,4.1,B4

# Target: T3, FZD10 cysteine-rich domain (CRD), …
# Experiment: flow cytometry, CHO-CRD cells
# Procedure: as §1
row,median fluorescence,Binder
1,2.67,B1
2,3.34,B2
3,4.22,B3
4,2.71,B4

# Target: T7, FZD8 cysteine-rich domain (CRD), …
# Experiment: flow cytometry, CHO-CRD cells
# Procedure: as §1
row,median fluorescence,Binder
1,29.4,B1
2,15.8,B2
3,11.9,B3

# Target: T4, FZD6 cysteine-rich domain (CRD), …
# Experiment: flow cytometry, CHO-CRD cells
# Procedure: as §1
row,median fluorescence,Binder
1,2.86,B1
2,3.37,B2
3,4.33,B3
4,2.89,B4

# Target: T10, FZD1 cysteine-rich domain (CRD), …
# Experiment: flow cytometry, CHO-CRD cells
# Procedure: as §1
row,median fluorescence,Binder
1,61.5,B1
2,4.07,B2
3,6.04,B3
4,4.61,B4

# Target: T5, FZD9 cysteine-rich domain (CRD), …
# Experiment: flow cytometry, CHO-CRD cells
# Procedure: as §1
row,median fluorescence,Binder
1,2.71,B1
2,3.52,B2
3,4.83,B3
4,2.57,B4
